PMC8104107

Target: T1, influenza A/WSN/33 virus nucleoprotein (NP), recombinant (influenza A virus A/WSN/33 (H1N1)), P15682
T1 chain: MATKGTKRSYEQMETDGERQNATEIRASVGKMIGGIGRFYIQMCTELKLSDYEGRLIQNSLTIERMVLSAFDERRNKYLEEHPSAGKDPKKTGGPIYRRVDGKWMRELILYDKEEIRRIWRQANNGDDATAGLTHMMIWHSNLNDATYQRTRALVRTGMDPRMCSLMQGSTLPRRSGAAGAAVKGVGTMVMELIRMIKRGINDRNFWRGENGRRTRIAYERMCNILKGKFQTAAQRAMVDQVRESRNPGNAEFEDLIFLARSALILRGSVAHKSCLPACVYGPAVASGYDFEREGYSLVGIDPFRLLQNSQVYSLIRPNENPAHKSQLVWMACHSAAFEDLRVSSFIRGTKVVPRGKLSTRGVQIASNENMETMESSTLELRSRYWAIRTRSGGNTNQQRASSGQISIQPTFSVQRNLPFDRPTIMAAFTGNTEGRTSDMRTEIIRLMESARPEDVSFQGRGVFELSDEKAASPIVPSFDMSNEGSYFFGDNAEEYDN
Assay: crystal structure; NP mixed with FA-6005 (final 0.5 mM) before crystallization; 0.1 M sodium acetate, 0.05 M magnesium acetate, 0.1 M MES pH 6.0, 7% PEG 8000, 5% glycerol; space group C222(1), one trimer in each asymmetric unit
Details: remark: other sources report otherwise

B1: influenza A/WSN/33 virus nucleoprotein (NP), recombinant, P15682 1-498 (natural protein)
chain: MATKGTKRSYEQMETDGERQNATEIRASVGKMIGGIGRFYIQMCTELKLSDYEGRLIQNSLTIERMVLSAFDERRNKYLEEHPSAGKDPKKTGGPIYRRVDGKWMRELILYDKEEIRRIWRQANNGDDATAGLTHMMIWHSNLNDATYQRTRALVRTGMDPRMCSLMQGSTLPRRSGAAGAAVKGVGTMVMELIRMIKRGINDRNFWRGENGRRTRIAYERMCNILKGKFQTAAQRAMVDQVRESRNPGNAEFEDLIFLARSALILRGSVAHKSCLPACVYGPAVASGYDFEREGYSLVGIDPFRLLQNSQVYSLIRPNENPAHKSQLVWMACHSAAFEDLRVSSFIRGTKVVPRGKLSTRGVQIASNENMETMESSTLELRSRYWAIRTRSGGNTNQQRASSGQISIQPTFSVQRNLPFDRPTIMAAFTGNTEGRTSDMRTEIIRLMESARPEDVSFQGRGVFELSDEKAASPIVPSFDMSNEGSYFFGDNAEEYDN
Work on B1 yielded a stoichiometry N of 3.
